US9144594B2, “Cathepsin L mediated diseases and associated methods and products” (University of Miami, priority 2005, dated 2015)
Where a chain is given by its changes, count along the chain named. Names may count otherwise.

B1: R725A (podo): podocin promoter-driven dynR725A vector, gene delivery (protein, UniProt Q05193 1-864, looked up, variant R725A)
Dynamin-1: MGNRGMEDLIPLVNRLQDAFSAIGQNADLDLPQIAVVGGQSAGKSSVLENFVGRDFLPRGSGIVTRRPLVLQLVNATTEYAEFLHCKGKKFTDFEEVRLEIEAETDRVTGTNKGISPVPINLRVYSPHVLNLTLVDLPGMTKVPVGDQPPDIEFQIRDMLMQFVTKENCLILAVSPANSDLANSDALKVAKEVDPQGQRTIGVITKLDLMDEGTDARDVLENKLLPLRRGYIGVVNRSQKDIDGKKDITAALAAERKFFLSHPSYRHLADRMGTPYLQKVLNQQLTNHIRDTLPGLRNKLQSQLLSIEKEVEEYKNFRPDDPARKTKALLQMVQQFAVDFEKRIEGSGDQIDTYELSGGARINRIFHERFPFELVKMEFDEKELRREISYAIKNIHGIRTGLFTPDMAFETIVKKQVKKIREPCLKCVDMVISELISTVRQCTKKLQQYPRLREEMERIVTTHIREREGRTKEQVMLLIDIELAYMNTNHEDFIGFANAQQRSNQMNKKKTSGNQDEILVIRKGWLTINNIGIMKGGSKEYWFVLTAENLSWYKDDEEKEKKYMLSVDNLKLRDVEKGFMSSKHIFALFNTEQRNVYKDYRQLELACETQEEVDSWKASFLRAGVYPERVGDKEKASETEENGSDSFMHSMDPQLERQVETIRNLVDSYMAIVNKTVRDLMPKTIMHLMINNTKEFIFSELLANLYSCGDQNTLMEESAEQAQRADEMLRMYHALKEALSIIGDINTTTVSTPMPPPVDDSWLQVQSVPAGRRSPTSSPTPQRRAPAVPPARPGSRGPAPGPPPAGSALGGAPPVPSRPGASPDPFGPPPQVPSRPNRAPPGVPSRSGQASPSRPESPRPPFDL
modifications: podocin promoter vector
notes: podocin promoter-driven dynR725A vector, gene delivery
B2: WT (podo): podocin promoter-driven wild type dyn1 vector, gene delivery (protein, UniProt Q05193 1-864, looked up)
Dynamin-1: B1 Dynamin-1 with A725R
modifications: podocin promoter vector
notes: podocin promoter-driven wild type dyn1 vector, gene delivery
B3: K44A (podo): podocin promoter-driven dynK44A vector, gene delivery (protein, UniProt Q05193 1-864, looked up, variant K44A)
Dynamin-1: B1 Dynamin-1 with K44A, A725R
modifications: podocin promoter vector
notes: podocin promoter-driven dynK44A vector, gene delivery
B4: L356Q (podo): podocin promoter-driven dynL356Q vector, gene delivery (protein, UniProt Q05193 1-864, looked up, variant L356Q)
Dynamin-1: B1 Dynamin-1 with L356Q, A725R
modifications: podocin promoter vector
notes: podocin promoter-driven dynL356Q vector, gene delivery
B5: R725A (CMV): CMV promoter-driven dynR725A vector, gene delivery (protein, UniProt Q05193 1-864, looked up, variant R725A)
Dynamin-1: B1 Dynamin-1
modifications: expressed from CMV vector
notes: CMV promoter-driven dynR725A vector, gene delivery

Assays:
[1] = test system: LPS induced mouse proteinuria model; test: LPS induced mouse proteinuria model, protein in urine (prevention and reversal by dynamin gene delivery); assay type: in vivo; settings: 2xLPS
Method: Next, it was examined whether gene transfer of dynR725A and dynL356Q, G358V was able to protect from LPS induced changes of podocyte FP and thus proteinuria (FIGS. 6A-B); (Table 2B). […] Whereas the application of wildtype dynamin was unable to protect from LPS induced podocyte FP effacement (data not shown) and proteinuria (0.63 mg/ml after 24 hours, p<0.05 and 1.18 mg/ml after 48 hours, p<0.04); table 2B, the co-administration of R725A together with LPS completely abolished the development of proteinuria after 24 hours (0.20 mg/ml). Podocyte FPs remained normal at this timepoint (FIG. 6B). The decline of R725A expression in podocytes was then associated with the development of proteinuria (1.25 mg/ml, 48 h). At this time point, there was noticeable podocyte FP effacement. The application of the cathepsin L resistant dynamin mutant L356Q, G358V together with LPS conferred a partial protection from proteinuria (0.47 mg/ml, P<0.05). This protection was associated with normal appearing podocyte FP (FIG. 6C). Although this protection was not as strong as the one provided by dynR725A, it was prolonged and was still present even after the second dose of LPS ([…], P<0.04). This observation argues that lower expression levels of dynL356Q, G358V are required to protect from LPS induced FP effacement but the presence of dynR725A has the most powerful protection.
Another set of experiments was carried out to study whether dynR725A and dynL356Q, G358V are also useful once there is already established podocyte damage and proteinuria (reversal experiments), (FIGS. 6C, D); (Table 2C). First LPS was injected in mice at 0 and 24 hours and the course of urinary protein loss was documented. On the peak phase of proteinuria at 48 hours after the first LPS injection, either delivery solution (control), dynR725A or dynL356Q, G358V dynamin mutants were transferred and the morphology of podocyte FP was analyzed and the degree of proteinuria was determined 10 hours later when there was strong expression of the transferred gene in podocytes. […] A dramatic reformation of podocyte FPs was also observed (FIG. 6C). The same observation was true for L356Q, G358V (FIG. 6D) which was able to reduce proteinuria from 1.20 mg/ml to 0.71 mg/ml). From the in vitro data it was determined that R725A starts to self assemble into higher order structures in the LPS setting which render dynamin assembly domain protected from cathepsin L cleavage. […] In addition, dominant activating dynR725A proves useful because despite causing podocyte damage in wildtype mice, it can resist cathepsin L cleavage by self assembly in the LPS setting and have strong activity by impairment in its GTP hydrolysis.
If dynamin is a target of CatL, then dynL356Q and dynR725A, which are resistant to CatL cleavage, might protect kidneys from LPS. In control mice, two injections of LPS led to FP effacement (FIG. 21C) and a large increase in proteinuria (FIG. 21E, Con).
Next it was examined whether dynL356Q and dynR725A can reverse already established proteinuria. LPS was injected into mice at 0 and 24 hours. At the peak of proteinuria at 48 hours, mice were injected with dynWT, dynL356Q, or dynR725A, and the degree of proteinuria was analyzed 12 hours post injection. […] The rescue could be achieved with both podocin and CMV-driven protein expression.
All animal studies were approved by the MGH Subcommittee for Research Animal Care. C57BL6 mice were obtained from Jackson Laboratory (Bar Harbor, Me.). CatL−/− mice are in a pure C57BL6 background (Nakagawa et al., Science 280, 450-453 (1998)). LPS induced mouse proteinuria model was utilized as previously described (Reiser et al., J Clin Invest 113, 1390-1397 (2004)). Rat PAN nephrosis model was induced by a single intravenous injection of PAN (180 mg/kg body wt; Sigma-Aldrich, St. Louis, Mo.) (Kim et al., Am J Physiol Renal Physiol 286, F922-935 (2004)). […]

mice = test: Protein in urine after in vivo gene delivery of dynamin mutants into healthy mice (Bradford); set-up: species or system mouse; settings: Table 5 Basic Phenotype, podocin-driven vectors
Method: Next, the level of urinary protein loss following gene delivery of dynamin mutants was examined (Table 2). […] The expression of K44A was associated with severe proteinuria (1.18 mg/ml) at peak gene expression time of 10 hours post injection. The reduction in gene expression was paralleled by a reduction in proteinuria (0.77 mg/ml). Gene transfer of dynR725A caused an increase in proteinuria (0.58 mg/ml). Although this was not a significant increase, it is probable that it is a consequence of the partial podocyte FP effacement seen after gene transfer of dynR725A, and due to increase in the stress fibers formation observed in cultured podocytes.
To explore whether functional dynamin is required for the maintenance of FP morphology in healthy kidneys, it was examined whether expression of dominant negative dynK44A disrupts podocyte function. […] In contrast, podocin driven expression of dynK44A, the dynamin mutant that cannot bind GTP, caused FP effacement (FIG. 21B) and proteinuria (1.1±0.26 mg/ml) at the peak of gene expression […] after gene delivery (FIGS. 21D and 25C). […] In other words, tight regulation of the life-time of the GTP-bound form of dynamin appears to be required for normal FP morphology and ultrafiltration.
CatL plasmids encoding short and long CatL (Goulet et al., Biol Chem 387, 1285-1293 (2004)), Dyn1 plasmids (pcDNA-driven) or p2.5 Podocin-driven (Moeller et al., Genesis 35, 39-42 (2003)) were introduced into mice (n>10, each construct) using the TransIT in vivo gene delivery system according to the manufacturer's instruction (Mirus Bio Corporation, Madison, Wis.). 10 and 24 h after gene delivery, proteinuria was assessed by Multistix 8 SG strips (Bayer Corporation, Elkhart, Ind.), and Bradford protein assay (Sigma, Saint Louis, Mo.). From the same urines the protein creatinine ratio was determined with Albuwell M and Creatinine Companion protein creatinine ELISA kits (Exocell Inc., Philadelphia, Pa.).

Molecule	Protein in the urine ([1]; Table 5 Prevention, t = 0) [mg/mL]	Protein in the urine ([1]; Table 5 Prevention, t = 24 h)	Protein in the urine ([1]; Table 5 Prevention, t = 48 h)	Protein in the urine ([1]; Table 5 Reversal, t = 0) [mg/mL]	Protein in the urine ([1]; Table 5 Reversal, t = 48 h) [mg/mL]	Protein in the urine ([1]; Table 5 Reversal, t = 58 h)	Protein in the urine (mice; t = 0) [mg/mL]	Protein in the urine (mice; t = 14 h)	Protein in the urine (mice; t = 24 h)
WT (CMV): CMV promoter-driven wild type dyn1 vector, gene delivery	0.28 ± 0.07	0.63 ± 0.12 (1.3.2 × 10^−3) mg/ml	1.18 ± 0.23 (7.6 × 10^−5) mg/ml	0.30 ± 0.11	0.17 ± 0.20	1.10 ± 0.18 mg/mL	–	–	–
B1	–	–	–	0.23 ± 0.07	1.26 ± 0.34	0.49 ± 0.23 (1.6 × 10^−4) mg/ml	0.29 ± 0.10	0.79 ± 0.22 (4.4 × 10^−5) mg/ml	0.45 ± 0.18 (3.6 × 10^−2) mg/ml
B2	–	–	–	–	–	–	0.28 ± 0.06	0.54 ± 0.13 (4.2 × 10^−3) mg/ml	0.46 ± 0.16 (4.6 × 10^−2) mg/ml
B3	–	–	–	–	–	–	0.24 ± 0.08	1.09 ± 0.27 (3.0 × 10^−5) mg/ml	0.42 ± 0.16 (5.2 × 10^−3) mg/ml
B4	–	–	–	0.29 ± 0.05	1.36 ± 0.49	0.73 ± 0.29 (6.9 × 10^−3) mg/ml	0.24 ± 0.05	0.45 ± 0.12 (2.5 × 10^−3) mg/ml	0.35 ± 0.018 mg/mL
B5	0.17 ± 0.08	0.20 ± 0.05 mg/mL	1.25 ± 0.29 (5.0 × 10^−6) mg/ml	0.28 ± 0.10	1.15 ± 0.17	0.38 ± 0.23 (1.8 × 10^−3) mg/ml	–	–	–
